# Measured values reported in US20090169546A1.
# T1: recombinant HMG1 produced in E. coli as calmodulin binding protein (CBP) fusion (human)
# T1 chain: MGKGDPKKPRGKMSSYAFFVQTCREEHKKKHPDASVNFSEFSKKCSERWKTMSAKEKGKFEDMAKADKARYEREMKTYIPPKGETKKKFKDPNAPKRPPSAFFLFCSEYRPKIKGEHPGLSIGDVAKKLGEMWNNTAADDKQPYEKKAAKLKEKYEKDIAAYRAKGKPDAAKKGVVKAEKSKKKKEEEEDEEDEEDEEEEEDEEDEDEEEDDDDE
# Molecular target: T1, recombinant HMG1 produced in E. coli as …
# Assay: BIAcore 3000; mAb amine-coupled to CM5, HMG1 injected in two-fold dilutions; steady-state model
# Conditions: remark: other sources report otherwise
row,Kd,Binder
1,331 nM,"anti-HMG1 antibody S17 (antibody, V domains shown) VH: EVQLLESGGGLVQPGGSLRLSCAASGFTFSYYDMHWVRQAPGKGLEWVSRISPSGGYTWYADSVKGRFTISRDNSKNTLYLQMNSLRAEDTAVYYCTRGRYTSGWHEYFDPWGQGTLVTVSS VL: AQDIQMTQSPSSLSASVGDRVTITCRASQSIGTYLNWYQQKPGTAPKVLIYAASSLQSGVPSRFSGSGSGTDFTLTISSLQPEDFSTYYCQQSYNTPRTFGQGTKLEIK"
2,114 nM,"anti-HMG1 antibody G20 (antibody, V domains shown) VH: EVQLLESGGGLVQPGGSLRLSCAASGFTFSWYDMFWVRQAPGKGLEWVSWISPSGGYTKYADSVKGRFTISRDNSKNTLYLQMNSLRAEDTAMYYCARSGLDYYDSSGYLDAFDIWGQGTMVTVSS VL: AQDIQMTQSPSSVSASVGDRVTITCRASQDVSIWLAWYQQKPGKAPKLLIFGASRLQSGVPSRFSGSRSGADFTLTIDSVQPEDFASYYCQQADSFPLTFGGGTKVEIK"
3,101 nM,"anti-HMG1 antibody G2 (antibody, V domains shown) VH: EVQLLESGGGLVQPGGSLRLSCAASGFTFSWYKMQWVRQAPGKGLEWVSGISPSGGSTAYADSVKGRFTISRDNSKNTLYLQMNSLRAEDTAVYYCAKMGLFNTGNSYVDYWGQGTLVTVSS VL: AQSELTQPPSVSEAPGQRVTISCSGSTSNIGNNAVIWYQQLPGKAPKLLIYYDDLLPSGVSDRFSGSKSGTSGSLAISGLQSEDEADYYCASWDDNLNGPLFGGGTKLTVL"
